# Measured values taken from US20010049357A1, “Use of Hsp27 as an anti-inflammatory agent” (priority 1999, published 2001).
# B1: Hsp 60: Human 60-kDa heat-shock protein, member of the large Hsp family (protein, UniProt P10809 27-573, looked up)
# 60 kDa heat shock protein, …: AKDVKFGADARALMLQGVDLLADAVAVTMGPKGRTVIIEQSWGSPKVTKDGVTVAKSIDLKDKYKNIGAKLVQDVANNTNEEAGDGTTTATVLARSIAKEGFEKISKGANPVEIRRGVMLAVDAVIAELKKQSKPVTTPEEIAQVATISANGDKEIGNIISDAMKKVGRKGVITVKDGKTLNDELEIIEGMKFDRGYISPYFINTSKGQKCEFQDAYVLLSEKKISSIQSIVPALEIANAHRKPLVIIAEDVDGEALSTLVLNRLKVGLQVVAVKAPGFGDNRKNQLKDMAIATGGAVFGEEGLTLNLEDVQPHDLGKVGEVIVTKDDAMLLKGKGDKAQIEKRIQEIIEQLDVTTSEYEKEKLNERLAKLSDGVAVLKVGGTSDVEVNEKKDRVTDALNATRAAVEEGIVLGGGCALLRCIPALDSLTPANEDQKIGIEIIKRTLKIPAMTIAKNAGVEGSLIVEKIMQSSSEVGYDAMAGDFVNMVEKGIIDPTKVVRTALLDAAGVASLLTTAEVVVTEIPKEEKDPGMGAMGGMGGGMGGGMF
# B2: Hsp25: a murine analogue of Hsp27 (protein, UniProt P14602 1-209, looked up)
# Heat shock protein beta-1: MTERRVPFSLLRSPSWEPFRDWYPAHSRLFDQAFGVPRLPDEWSQWFSAAGWPGYVRPLPAATAEGPAAVTLAAPAFSRALNRQLSSGVSEIRQTADRWRVSLDVNHFAPEELTVKTKEGVVEITGKHEERQDEHGYISRCFTRKYTLPPGVDPTLVSSSLSPEGTLTVEAPLPKAVTQSAEITIPVTFEARAQIGGPEAGKSEQSGAK
# Experiments:
# [1] = system: Mono Mac 6, a human monocyte cell line; conditions: reference 7; cited from earlier work
# [2] = Adverse effect of Hsp 25 in normal rats; type: in vivo; conditions: 10 μg in normal rats (~250 gm body weight)
# Description: Studies were performed to analyze the adverse effect of Hsp 25 (a murine analogue of Hsp27 ) in rats. […] To examine the effects in an animal model, the cecal ligation and puncture model (CLP) in rats can be used. (Chaudry, et al, 1993, In: Schlag, G. and Redl, H. (Eds), Pathophysiology of shock, Sepsis, and Organ Failure. Springer-Verlag, pp. 1048-1059.) CLP induces sepsis in rats. Hsp25 is administered to the CLP animals and the anti-inflammatory effect of Hsp25 in CLP rats is evaluated. The effectiveness of Hsp25 in simultaneously inducing IL-10 and IL-12 in human monocytes in the rat model, is reasonably predictive of the efficacy of Hsp27 as an anti-inflammatory agent in humans.
Molecule,TNFα induced [1],adverse effects [2]
B1,approximately 750 pg/ml,
B2,,did not induce any adverse effects
